Laboratory results as given in patent US20230314420A1 (Genentech, published 2023).

B1: Vorhyaluronidase Alfa (recombinant human hyaluronidase rHuPH20) (enzyme, UniProt P38567 36-482, looked up)
chain: LNFRAPPVIPNVPFLWAWNAPSEFCLGKFDEPLDMSLFSFIGSPRINATGQGVTIFYVDRLGYYPYIDSITGVTVNGGIPQKISLQDHLDKAKKDITFYMPVDNLGMAVIDWEEWRPTWARNWKPKDVYKNRSIELVQQQNVQLSLTEATEKAKQEFEKAGKDFLVETIKLGKLLRPNHLWGYYLFPDCYNHHYKKPGYNGSCFNVEIKRNDDLSWLWNESTALYPSIYLNTQQSPVAATLYVRNRVREAIRVSKIPDAKSPLPVFAYTRIVFTDQVLKFLSQDELVYTFGETVALGASGIVIWGTLSIMRSMKSCLLLDNYMETILNPYIINVTLAAKMCSQVLCQEQGVCIRKNWNSSDYLHLNPDNFAIQLEKGGKFTVRGKPTLEDLEQFSEKFYCSCYSTLSCKEKADVKDTDAVDVCIADGVCIDAFLKPPMETEEPQIFY
notes: Also the only protein in the two rHuPH20-containing formulation buffers tested as samples; also called rHuPH20-Containing FDC LD Formulation Buffer; rHuPH20-Containing FDC MD Formulation Buffer
B2: PEG-Filgrastim (other, UniProt P09919-2 31-204, looked up)
chain: TPLGPASSLPQSFLLKCLEQVRKIQGDGAALQEKLCATYKLCHPEELVLLGHSLGIPWAPLSSCPSQALQLAGCLSQLHSGLFLYQGLLQALEGISPELGPTLDTLQLDVADFATTIWQQMEELGMAPALQPTQGAMPAFASAFQRRAGGVLVASHLQSFLEVSYRVLRHLAQP
modifications: pegylated; site not stated
notes: Specificity control
B3: Filgrastim (other, UniProt P09919-2 31-204, looked up)
chain: B2 chain
notes: Specificity control
B4: Pertuzumab coat reagent: recombinant HER2 extracellular domains I, II, III fused to a murine Fc; domain IV (containing the trastuzumab epitope) is depleted (Fc fusion)
chain: KYALADASLKMADPNRFRGKDLPVLDQLLESTQVCTGTDMKLRLPASPETHLDMLRHLYQGCQVVQGNLELTYLPTNASLSFLQDIQEVQGYVLIAHNQVRQVPLQRLRIVRGTQLFEDNYALAVLDNGDPLNNTTPVTGASPGGLRELQLRSLTEILKGGVLIQRNPQLCYQDTILWKDIFHKNNQLALTLIDTNRSRACHPCSPMCKGSRCWGESSEDCQSLTRTVCAGGCARCKGPLPTDCCHEQCAAGCTGPKHSDCLACLHFNHSGICELHCPALVTYNTDTFESMPNPEGRYTFGASCVTACPYNYLSTDVGSCTLVCPLHNQEVTAEDGTQRCEKCSKPCARVCYGLGMEHLREVRAVTSANIQEFAGCKKIFGSLAFLPESFDGDPASNTAPLQPEQLQVFETLEEITGYLYISAWPDSLPDLSVFQNLQVIRGRILHNGAYSLTLQGLGISWLGLRSLRELGSGLALIHHNTHLCFVHTVPWDQLFRNPHQALLHTANRPEDECVRRAQVTDKKIEPRGPTIKPCPPCKCPAPNLLGGPSVFIFPPKIKDVLMISLSPIVTCVVVDVSEDDPDVQISWFVNNVEVHTAQTQTHREDYNSTLRVVSALPIQHQDWMSGKEFKCKVNNKDLPAPIERTISKPKGSVRAPQVYVLPPPEEEMTKKQVTLTCMVTDFMPEDIYVEWTNNGKTELNYKNTEPVLDSDGSYFMYSKLRVEKKNWVERNSYSCSVVHEGLHNHHTTKSFSRTPGK
notes: also called P-HER2 variant; capture reagent of the pertuzumab ELISA
B5: Pertuzumab (antibody, human IgG1, kappa, V domains shown)
VH: EVQLVESGGGLVQPGGSLRLSCAASGFTFTDYTMDWVRQAPGKGLEWVADVNPNSGGSIYNQRFKGRFTLSVDRSKNTLYLQMNSLRAEDTAVYYCARNLGPSFYFDYWGQGTLVTVSS
VL: DIQMTQSPSSLSASVGDRVTITCKASQDVSIGVAWYQQKPGKAPKLLIYSASYRYTGVPSRFSGSGSGTDFTLTISSLQPEDFATYYCQQYYIYPYTFGQGTKVEIKR
notes: also called rhuMAb 2C4; Pertuzumab IV
B6: Trastuzumab coat reagent: recombinant HER2 extracellular domains I, III, IV fused to a murine Fc; domain II is replaced by structurally related domain II of … (Fc fusion)
chain: KYALADASLKMADPNRFRGKDLPVLDQLLEAASTQVCTGTDMKLRLPASPETHLDMLRHLYQGCQVVQGNLELTYLPTNASLSFLQDIQEVQGYVLIAHNQVRQVPLQRLRIVRGTQLFEDNYALAVLDNGDPLNNTTPVTGASPGGLRELQLRSLTEILKGGVLIQRNPQLCYQDTILWKDIFHKNNQLALTLIDTNRSRACHPCSPMCKGSRCWGESSEDCQKLTKIICAQQCSGRCRGKSPSDCCHNQCAAGCTGPRESDCLVCRKFRDEATCKDTCPPLMLYNPTTYQMDVNPEGKYSFGATCVKKCPRNYVVTDHGSCVRACGADSYEMEEDGVRKCKKCEGPCRKVCYGLGMEHLREVRAVTSANIQEFAGCKKIFGSLAFLPESFDGDPASNTAPLQPEQLQVFETLEEITGYLYISAWPDSLPDLSVFQNLQVIRGRILHNGAYSLTLQGLGISWLGLRSLRELGSGLALIHHNTHLCFVHTVPWDQLFRNPHQALLHTANRPEDECVGEGLACHQLCARGHCWGPGPTQCVNCSQFLRGQECVEECRVLQGLPREYVNARHCLPCHPECQPQNGSVTCFGPEADQCVACAHYKDPPFCVARCPSGVKPDLSYMPIWKFPDEEGACQPCPINCTHSCVDLDDKGCPAEQRRAQVTDKKIEPRGPTIKPCPPCKCPAPNLLGGPSVFIFPPKIKDVLMISLSPIVTCVVVDVSEDDPDVQISWFVNNVEVHTAQTQTHREDYNSTLRVVSALPIQHQDWMSGKEFKCKVNNKDLPAPIERTISKPKGSVRAPQVYVLPPPEEEMTKKQVTLTCMVTDFMPEDIYVEWTNNGKTELNYKNTEPVLDSDGSYFMYSKLRVEKKNWVERNSYSCSVVHEGLHNHHTTKSFSRTPGK
notes: also called T-HER2 variant; capture reagent of the trastuzumab ELISA

What was measured:
[1] = target: B4; experiment: pertuzumab ELISA specificity test, highest assay concentration, duplicate, OD(405 nm)-OD(490 nm)
[2] = target: B6; experiment: trastuzumab ELISA specificity test, highest assay concentration, duplicate, OD(405 nm)-OD(490 nm)
PEG-Filgrastim [3] = target: B2; experiment: pertuzumab ELISA specificity test
Filgrastim [4] = target: B3; experiment: pertuzumab ELISA specificity test
[5] = target: B1; experiment: pertuzumab ELISA specificity test; sample Vorhyaluronidase Alfa
[6] = target: B6; experiment: trastuzumab ELISA specificity test; sample Pertuzumab IV
PEG-Filgrastim [7] = target: B2; experiment: trastuzumab ELISA specificity test
Filgrastim [8] = target: B3; experiment: trastuzumab ELISA specificity test
[9] = target: B1; experiment: trastuzumab ELISA specificity test; sample rHuPH20-Containing FDC LD Formulation Buffer

Binder: B1
- OD Mean of Replicates [1]: 0.07 OD
- OD Mean of Replicates [2]: 0.03 OD

Binder: B2
- OD Mean of Replicates [1]: 0.07 OD
- OD Mean of Replicates [2]: 0.03 OD

Binder: B3
- OD Mean of Replicates [1]: 0.08 OD
- OD Mean of Replicates [2]: 0.04 OD

Binder: B4
- binding result (PEG-Filgrastim [3]): no binding
- binding result (Filgrastim [4]): no binding
- binding result [5]: no binding

Binder: B5
- binding result [6]: no binding

Binder: B6
- binding result (PEG-Filgrastim [7]): no binding
- binding result (Filgrastim [8]): no binding
- binding result [9]: no binding
